Kd data for three molecules are collected here from paper PMC7526519 (2020).

Assay [1] has as its target SARS-CoV-2 receptor binding domain (RBD), His-tagged (SARS-CoV-2, UniProt P0DTC2 319-541). Briefly: SPR. (In general: SPR reads the build-up and loss of mass on a sensor chip optically.)
In assay [2] the target is SARS-CoV receptor binding domain (RBD), His-tagged (SARS-CoV, UniProt P59594 306-527). The assay is described as follows: SPR.

B1: wild Bactrian camel ACE2 ectodomain fused with mouse Fc (Fc fusion)
chain: QSTTEELAKTFLEEFNHEAEDLSYQSSLASWNYNTNITDENVQKMNDARAKWSTFYEEKSKTAKTYPLEEIQNVTLKRQLQALQQSGASALSADKSKRLTTVLSTMSTIYSSGEVCDPNNPQECLVLEPGLDDIMENSKDYNQRLWAWEGWRAEVGKQLRPLYEEYVVLKNEMARANNYEDYGDYWRGDYEVMWAGDYDYSRDQLMGDVEHTFAEIKPLYEHLHAYVRAKLMDVYPSHISPTGCLPAHLLGDMWGRFWTNLYSLTVPFGQKPNIDVTEAMENQSWDAKRIFKEAEKFFVSIGLPNMTQGFWDNSMLTEPGDGRKVVCHPTAWDLGKGDFRIKMCTKVTMDDFLTAHHEMGHIQYDMAYAIQPFLLRNGANEGFHEAVGEIMSLSAATPHYLKALGLLPADFYEDSETEINFLLKQALTIVGTLPFTYMLEKWRWMVFKGEIPKEQWMQKWWEMKREIVGVVEPLPHDETYCDPACLFHVAEDYSFIRYYTRTIYQFQFHEALCQIAKHEGPLYKCDISNSTEAGQKLLQMLSLGKSEPWTLALEGLVGVKTMDVKPLLNYFEPLLTWLKDQNRNSFVGWSTDWTPYTDQSIKVRISLKSALGDKAYEWNDNEMYLFQSSLAYAMRKYFLKVQNQTILFGVEDVWVSDLKPRISFSFFVTSPKNVSDIIPRTEVEEAIRMSRSRINDAFRLDDNSLEFLGIQPTLGPPYEPPVT
A word on the Kd: it is the concentration at which binding is half-saturated. Low readings indicate higher affinity, high ones lower affinity. As to B1, the Kd is 272 nM in assay [1] and 69.1 nM in assay [2].

B2: alpaca ACE2 ectodomain fused with mouse Fc (Fc fusion)
chain: QSTTEELAKTFLKEFNHEAEDRSYQSSLASWNYNTNITDENVQKMNDARAKWSTFYEEKSKAAKIYPLEEIENVTLKRQLQALQQSGASALSADKSKRLTTILNTMSSIYSSGEVCDPNNPQECLVLEPGLDDIMENSKDYNQRLWAWEGWRAEVGKQLRPLYEEYVVLKNEMARANNYEDYGDYWRGDYEVMWAGDYDYSRDQLMGDVEHTFAEIKPLYEHLHAYVRAKLMDAYPSRISPTGCLPAHLLGDMWGRFWTNLYSLTVPFGQKPNIDVTEAMENQSWDAKRIFKEAEKFFVSIGLPNMTQGFWDNSMLTEPGDGRKVVCHPTAWDLGKGDFRIKMCTKVTMDDFLTAHHEMGHIQYDMAYAIQPFLLRNGANEGFHEAVGEIMSLSAATPHYLKALGLLPADFYEDSETEINFLLKQALTIVGTLPFTYMLEKWRWMVFKGEIPKEQWMQKWWEMKREIVGVVEPLPHDETYCDPACLFHVAEDYSFIRYYTRTIYQFQFHEALCQIAKHEGPLYKCDISNSTEAGQKLLQMLSLGKSEPWTLALEALVGVKTMDVKPLLNYFEPLLTWLKDQNRNSFVGWSTDWTPYTDQSIKVRISLKSALGDKAYEWNDNEMYLFRSSLAYAMRNYFLTVQKQTILFGVEDVWVSDLKPRISFSFFVTSPKNVSDIIPRTEVEKAIRMSRSRINDAFRLDDNSLEFLGIQPTLGPPYEPP
The molecule B2 yielded a Kd in assay [2] of 54.9 nM.

B3: fulvous fruit bat ACE2 ectodomain fused with mouse Fc (Fc fusion)
chain: QSTPEELAKTFLEKFNTEAEDLFYQSSLASWDFNTNIIDENVQKMSKARATWSAFYDEQSKLAKTYQLDEIQDPELKLQLRILQQSGSSTLSADKTKRLNDILNTMSTIYSTGKICQPNNSQECLLLEPGLDDIMENSKDYSQRLWAWESWRSEVGKQLRPYYEEYVVLKNEMARGENYEDYGDYWRGDYETEGINGSAYTRDQLIEDVDRIFTEIKPLYEQLHAYVRTKLMDAYPSHISPTGCLPAHLLGDMWGRFWINLYPLTVPFEQKPNIDVTDEMVNQNWNAKRIFKEAEKFFVSLGLPNMTETFWEKSVLTEPDNDQKVACHPTAWDLGKGDFRIIMCTKVKMEDFLTAHHEMGHIQYYMAYATQPYLLRDGANEGFHEAVGEVISLSVATPNHLKNMGLLPPDFYEDNETEINFLLKQALNVVGTLPFTYMLEKWRWMVFKGEIPKEQWMEKWWEMKRELVGVVEPLPHDETYCDPASLFHVANDYSFIRYYTRTIFEFQFLEALCQIAQHEGPLYKCDIANSTEAGKKLHQMLSLGKSKPWTLALESIAGTKNMDVRPLLNYFEPLFTWLKEKNRNSFVGWSTDWSPYSGQSIKVRISLKAALGEKAYEWNDNEMYLFKSSIAYSLREYFLKVKNLTIPFGEEDVWVSDLKPRISFNFFVTSPQNVSEFIPRTEVEGAIRMSRSRINDAFRLDDDTLEFLGIEPTLGTPYQPPVT
B3: the Kd in assay [1] was 1130 nM; in assay [2] it was 412 nM.
